# B1: variant surface glycoprotein VSG221 (MITat1.2) (natural protein)
# chain: AAEKGFKQAFWQPLCQVSEELDDQPKGALFTLQAAASKIQKMRDAALRASIYAEINHGTNRAKAAVIVANHYAMKADSGLEALKQTLSSQEVTATATASYLKGRIDEYLNLLLQTKESGTSGCMMDTSGTNTVTKAGGTIGGVPCKLQLSPIQPKRPAATYLGKAGYVGLTRQADAANNFHDNDAECRLASGHNTNGLGKSGQLSAAVTMAAGYVTVANSQTAVTVQALDALQEASGAAHQPWIDAWKAKKALTGAETAEFRNETAGIAGKTGVTKLVEEALLKKKDSEASEIQTELKKYFSGHENEQWTAIEKLISEQPVAQNLVGDNQPTKLGELEGNAKLTTILAYYRMETAGKFEVLTQKHKPAESQQQAAETEGSCNKKDQNECKSPCKWHNDAENKKCTLDKEEAKKVADETAKDGKTGNTNTTGSS
# modifications: GPI anchor, C-terminal
# notes: variant surface glycoprotein VSG221 of MITat1.2, T. brucei brucei Lister 427; Internal control of the BN-PAGE; also called dVSG; mVSG; source: endogenous, bloodstream form T. brucei brucei Lister 427 (MITat1.2), dodecylmaltoside extract
# How the values were obtained:
# Assay in all cases: native gel or EMSA; BN-PAGE (4-16% gradient) of 1% dodecylmaltoside extracts of cell lines cultured 24 hr with tetracycline, without or with 4 M urea; immunoblot with anti-TfR or anti-VSG221
# [1] = molecular target: ESAG7, subunit of the transferrin receptor (TfR) without GPI anchor (T. brucei brucei (Lister 427))
# [2] = molecular target: ESAG6, GPI-anchored subunit of the transferrin receptor (TfR) (T. brucei brucei (Lister 427))
# [3] = molecular target: the molecule itself
molecule,measurement,setting,value
"ESAG7, subunit of the transferrin receptor (TfR) without GPI anchor (natural protein)",stoichiometry N,[1],2
"ESAG6, GPI-anchored subunit of the transferrin receptor (TfR) (natural protein)",stoichiometry N,[2],2
B1,stoichiometry N,[3],2
